Experimental findings from patent publication US20120135923A1 (IPSEN PHARMA S A S, published 2012) are described below.

Experiment [1] concerns the target T1, hMC5-R (human, UniProt P33032 1-325).
T1 construct: whole, on cells; Assayed as membranes of CHO-K1 cells expressing the receptor; also called hMC-R receptor subtype 5; melanocortin-5 receptor (MC5-R)
As to the kind of experiment: competition with [125I]-NDP-α-MSH, CHO-K1 membranes.

For experiment [2], the target named is T2, hMC3-R (human, UniProt P41968 1-323).
T2 construct: whole, on cells; Assayed as membranes of CHO-K1 cells expressing the receptor; also called hMC-R receptor subtype 3; melacortin-3 (MC3-R)
T2 sequence (P41968 whole entry): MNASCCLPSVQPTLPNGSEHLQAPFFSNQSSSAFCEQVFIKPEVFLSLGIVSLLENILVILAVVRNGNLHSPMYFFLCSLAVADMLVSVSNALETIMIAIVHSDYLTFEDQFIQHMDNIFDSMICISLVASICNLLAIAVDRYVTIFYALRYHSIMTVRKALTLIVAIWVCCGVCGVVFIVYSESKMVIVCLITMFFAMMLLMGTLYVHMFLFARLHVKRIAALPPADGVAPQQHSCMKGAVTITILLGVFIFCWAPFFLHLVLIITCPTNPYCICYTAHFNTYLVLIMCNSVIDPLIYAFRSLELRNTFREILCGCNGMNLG
Described as above.

The target of experiment [3] is T3, hMC1-R (human, UniProt Q01726 1-317).
T3 construct: whole, on cells; Assayed as membranes of CHO-K1 cells expressing the receptor; also called hMC-R receptor subtype 1; melanocyte-specific receptor (MC1-R)
T3 sequence (Q01726 whole entry): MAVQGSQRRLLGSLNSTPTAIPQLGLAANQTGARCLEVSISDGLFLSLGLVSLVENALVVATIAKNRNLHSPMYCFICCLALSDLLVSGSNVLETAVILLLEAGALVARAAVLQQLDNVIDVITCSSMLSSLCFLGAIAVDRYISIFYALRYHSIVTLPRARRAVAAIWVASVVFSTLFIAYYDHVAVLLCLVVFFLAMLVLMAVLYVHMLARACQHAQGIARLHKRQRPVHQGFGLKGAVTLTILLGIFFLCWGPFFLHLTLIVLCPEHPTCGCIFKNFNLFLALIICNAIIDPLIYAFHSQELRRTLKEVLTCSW
The description is as above.

Experiment [4] has as its target T4, hMC4-R (human, UniProt P32245 1-332).
T4 construct: whole, on cells; Assayed as membranes of CHO-K1 cells expressing the receptor; also called hMC-R receptor subtype 4; melanocortin-4 (MC4-R)
Described as above.

Experiment [5] concerns the target T3, hMC1-R. The experiment is described as follows: ratio Ki hMC1-R / Ki hMC4-R, same assay. The protocol: Cellular membranes used for the in vitro receptor binding assays were obtained from transgenic CHO-K1 cells stably expressing hMC-R receptor subtypes 1, 3, 4 or 5. […] The pellets were resuspended in the same buffer and centrifuged at 50,000 g for 10 minutes at approximately 4° C. The washed pellets containing the cellular membranes were stored at approximately −80° C.
Competitive inhibition of [¹²⁵I](Tyr²)-(Nle⁴-D-Phe⁷)α-MSH ([¹²⁵I]-NDP-α-MSH, Amersham Biosciences®) binding was carried out in polypropylene 96 well plates. Cell membranes (1-10 μg protein/well) prepared as described above were incubated in 50 mM Tris-HCl at pH 7.4 containing 0.2% bovine serum albumin (BSA), 5 mM MgCl₂, 1 mM CaCl₂ and 0.1 mg/mL bacitracin, with increasing concentrations of the test compound and 0.1-0.3 nM […] for approximately 90-120 minutes at approximately 37° C. Bound [¹²⁵I]-NDP-α-MSH ligand was separated from free [¹²⁵I]-NDP-α-MSH by filtration through GF/C glass fiber filter plates (Unifilter®; Packard) presoaked with 0.1% (w/v) polyethylenimine (PEI), using a Packard Filtermate® harvester. Filters were washed three times with 50 mM Tris-HCl at pH 7.4 at a temperature of approximately 0-4° C. and then assayed for radioactivity using a Packard Topcount® scintillation counter. Binding data were analyzed by computer-assisted non-linear regression analysis (XL fit; IDBS).

Bridge positions count the residues as written; N and C are the ends. Square brackets hold non-standard residues; d marks the D form. Nle = CCCC[C@H](N)C(=O)O; Ava = NCCCCC(=O)O

T4 sequence (P32245 whole entry): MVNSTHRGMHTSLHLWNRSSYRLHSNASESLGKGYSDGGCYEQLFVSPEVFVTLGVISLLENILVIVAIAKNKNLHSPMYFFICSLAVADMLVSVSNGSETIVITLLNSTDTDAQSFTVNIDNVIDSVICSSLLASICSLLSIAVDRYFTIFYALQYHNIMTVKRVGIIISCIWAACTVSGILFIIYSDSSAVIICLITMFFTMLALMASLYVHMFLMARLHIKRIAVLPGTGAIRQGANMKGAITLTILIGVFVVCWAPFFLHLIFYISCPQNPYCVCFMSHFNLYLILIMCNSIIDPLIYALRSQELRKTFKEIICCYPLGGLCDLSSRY
T1 sequence (P33032 whole entry): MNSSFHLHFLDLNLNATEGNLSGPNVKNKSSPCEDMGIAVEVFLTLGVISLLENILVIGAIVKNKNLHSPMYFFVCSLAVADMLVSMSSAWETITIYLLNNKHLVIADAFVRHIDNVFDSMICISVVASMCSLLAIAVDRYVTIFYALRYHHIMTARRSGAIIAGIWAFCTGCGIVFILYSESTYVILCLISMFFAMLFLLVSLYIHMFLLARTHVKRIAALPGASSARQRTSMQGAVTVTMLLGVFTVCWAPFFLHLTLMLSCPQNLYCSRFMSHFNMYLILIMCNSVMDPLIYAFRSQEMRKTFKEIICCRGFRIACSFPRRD

B1: Ac-Nle-c(Cys-His-D-Phe-Arg-Trp-Apn-Cys)-NH2 (peptide)
peptide: Ac-[Nle]CH[dF]RW[Ava]C-NH2
modifications: disulfide 2-8
SMILES: CCCC[C@H](NC(C)=O)C(=O)N[C@H]1CSSC[C@@H](C(N)=O)NC(=O)CCCCNC(=O)[C@H](Cc2c[nH]c3ccccc23)NC(=O)[C@H](CCCNC(=N)N)NC(=O)[C@@H](Cc2ccccc2)NC(=O)[C@H](Cc2c[nH]cn2)NC1=O
A word on the Ki: it is the equilibrium dissociation constant of an inhibitor or competing ligand from its target. A lower Ki goes with a stronger hold on the target. As to B1, the Ki in experiment [1] is 13.4 nM; in experiment [2], 9.33 nM; in experiment [3] it was 0.0951 nM; in experiment [4], 0.894 nM. In addition, the “Ki hMC1-R/MC4-R” value in experiment [5] was found to be 0.11.
